Reference: patent US11591580B2, “K85 mutation-containing plant EPSPS mutant, and encoding gene and application thereof” (GEVOTO LLC, priority 2017, dated 2023)
Numbering of substitutions follows the chain as printed.

B1: G1: single-mutation soybean EPSPS mutant, SEQ ID NO: 20, only mutation K98(85)T (protein)
chain: MAAAEKPSTAPEIVLEPIKDISGTITLPGSKSLSNRILLLAALSEGTTVVDNLLYSEDIHYMLGALRTLGLRVEDDQTTKQAIVEGCGGLFPTIKESTDEINLFLGNAGTAMRPLTAAVVAAGGNASYVLDGVPRMRERPIGDLVAGLKQLGADVDCFLGTNCPPVRVNGKGGLPGGKVKLSGSVSSQYLTALLMAAPLALGDVEIEIVDKLISVPYVEMTLKLMERFGVSVEHSGDWDKFLVHGGQKYKSPGNAFVEGDASSASYFLAGAAVTGGTITVNGCGTSSLQGDVKFAEVLEKMGAKVTWSENSVTVTGPPQDSSGQKVLQGIDVNMNKMPDVAMTLAVVALFANGQTTIRDVASWRVKETERMIAICTELRKLGATVEEGPDYCVITPPEKLNVTAIDTYDDHRMAMAFSLAACGDVPVTIKDPGCTRKTFPDYFEVLERFTRH
modifications: Glycine max EPSPS mutant with mutation K98(85)T
B2: G2: single-mutation soybean EPSPS mutant, SEQ ID NO: 22, only mutation P114(101)S but no K98(85)T (protein)
chain: B1 chain with T98K, P114S
modifications: Glycine max EPSPS mutant with mutation P114(101)S
B3: G3: soybean EPSPS mutant, SEQ ID NO: 24, two mutations K98(85)T and P114(101)S (protein)
chain: B1 chain with P114S
modifications: Glycine max EPSPS mutant with mutations K98(85)T and P114(101)S

Tests used:
[1] = tested on: transgenic rice seedlings; assay: glyphosate resistance of the EPSPS mutant in transgenic rice plants sprayed with glyphosate (Example 8, Table 1); format: in vivo, rice (Nipponbare); conditions: for glyphosate resistance / survival of transformed rice seedlings (in words): 2× glyphosate dosage; for glyphosate resistance of transformed rice seedlings (in words): glyphosate sprayed at the 1× dosage
Excerpt: A method for detecting the glyphosate resistance of the G1 soybean EPSPS mutant (SEQ ID NO: 20), G2 soybean EPSPS mutant (SEQ ID NO: 22) and G3 soybean EPSPS mutant (SEQ ID NO: 24) provided in Example 7, the R1 rice EPSPS mutant (SEQ ID NO: 4) provided in Example 5, and the Z1 maize EPSPS mutant (SEQ ID NO: 12) provided in Example 6 in the transgenic rice is as follows:
The plasmids (containing the EPSPS mutant gene) of the monoclonal resistant bacteria of pADV5-EPSPS in Examples 1-7 were extracted by a conventional method, followed by double enzyme digestion by Pac1 and BstEII, the small fragments were collected, and then the small fragments were ligated, using T4 DNA ligase, to the pGVP1 vectors that had undergone the same double enzyme digestion, to obtain a pGVP1-EPSPS vector having a structure as shown in FIG. 8.
In the present example, the glyphosate resistance of the EPSPS mutant in transgenic rice plants were verified. An experiment method is as follows:
The transgenic rice seedlings transplanted were uniformly arranged in a same experiment area (preventing leaves from overlapping). The areas occupied by the experiment groups and the control group were calculated, and according to the areas, glyphosate was sprayed at a 1× dosage of 1060 g/hectare (0.106 g/m^2). 2× dosage was 2120 g/hectare, 5× dosage was 5300 g/hectare, and 20× dosage was 21200 g/hectare.
Commercially available Roundup® 41% ammonium glyphosate was used. Roundup® ammonium glyphosate with corresponding volumes was taken according to the above sprayed concentrations, then diluted with 20 times of volume of water, and then uniformly sprayed on the plants in the experiment groups and the control group. After leaf surfaces were dry, the plants were moved into greenhouse or outdoor to cultivate.
After the glyphosate was sprayed at the 1× dosage, growth states of the plants in each group were observed and recorded on a 10th day, and glyphosate was sprayed to the survived plants at the 2× dosage. The growth states of the plants in each group were observed and recorded 10 days later, and glyphosate was sprayed to the survived plants at the 5× dosage. The growth states of the plants in each group were observed and recorded 10 days later, and glyphosate was sprayed to the survived plants at the 20× dosage. The growth states of the plants in each group were observed and recorded 10 days later, and results are shown in Table 1, wherein corresponding numbers of plants denoted by −, +, ++ and +++ are listed, and “%++&+++” is percentage of plant having medium and high glyphosate resistance to the total number of plants observed.

double knockout E. coli = assay: growth of E. coli transformed by genes encoding soybean EPSPS (wild type and mutants) in culture media containing different glyphosate concentrations (Example 7, FIG. 3); format: cell-based
[2] = 1X dosage (1060 g/hectare glyphosate), recorded on 10th day
[3] = 2X dosage (2120 g/hectare) sprayed to plants surviving 1X, recorded 10 days later
[4] = 5X dosage (5300 g/hectare) sprayed to plants surviving 2X, recorded 10 days later
[5] = 20X dosage (21200 g/hectare) sprayed to plants surviving 5X, recorded 10 days later
[6] = culture media containing 20 mM glyphosate

Row | Molecule | % ++&+++ (percentage of plant having medium and high glyphosate resistance to the total number of plants observed) [1, 2] | number of plants with resistance + (low glyphosate resistance) [1, 2] | number of plants with resistance ++ (medium glyphosate resistance) [1, 2] | number of plants with resistance +++ (high glyphosate resistance) [1, 2] | number of plants with resistance − (no glyphosate resistance) [1, 2] | % ++&+++ (percentage of plant having medium and high glyphosate resistance to the total number of plants observed) [1, 3] | number of plants with resistance + (low glyphosate resistance) [1, 3] | number of plants with resistance ++ (medium glyphosate resistance) [1, 3] | number of plants with resistance +++ (high glyphosate resistance) [1, 3] | number of plants with resistance − (no glyphosate resistance) [1, 3] | % ++&+++ (percentage of plant having medium and high glyphosate resistance to the total number of plants observed) [1, 4] | number of plants with resistance + (low glyphosate resistance) [1, 4] | number of plants with resistance ++ (medium glyphosate resistance) [1, 4] | number of plants with resistance +++ (high glyphosate resistance) [1, 4] | number of plants with resistance − (no glyphosate resistance) [1, 4] | % ++&+++ (percentage of plant having medium and high glyphosate resistance to the total number of plants observed) [1, 5] | number of plants with resistance + (low glyphosate resistance) [1, 5] | number of plants with resistance ++ (medium glyphosate resistance) [1, 5] | number of plants with resistance +++ (high glyphosate resistance) [1, 5] | number of plants with resistance − (no glyphosate resistance) [1, 5] | further results
1 | B1 | 5.4% | 6 | 2 | 0 | 29 | 0.0% | 4 | 0 | 0 | 33 | 0.0% | 0 | 0 | 0 | 37 | 0.0% | 0 | 0 | 0 | 37 | glyphosate resistance / survival of transformed rice seedlings (in words) [1]: some of the rice seedlings transformed by G1 still survived; glyphosate resistance of transformed rice seedlings (in words) [1]: obviously superior to that of G0; growth of transformed E. coli (double knockout E. coli; culture media containing 1 mM glyphosate): obviously superior to the control group (G0)
2 | B2 | 47.1% | 6 | 5 | 3 | 3 | 0.0% | 0 | 0 | 0 | 17 | 0.0% | 0 | 0 | 0 | 17 | 0.0% | 0 | 0 | 0 | 17 | glyphosate resistance / survival of transformed rice seedlings (in words) [1]: all rice seedlings containing the soybean EPSPS mutant G2 died; glyphosate resistance of transformed rice seedlings (in words) [1]: certain resistance to glyphosate; growth of transformed E. coli (double knockout E. coli; [6]): could grow
3 | B3 | 45.2% | 1 | 9 | 5 | 16 | 19.4% | 5 | 6 | 0 | 20 | 0.0% | 10 | 0 | 0 | 21 | 0.0% | 3 | 0 | 0 | 28 | glyphosate resistance of transformed rice seedlings (in words) [1]: certain resistance to glyphosate; growth of transformed E. coli (double knockout E. coli; [6]): superior to that of Experiment Group 2 (G2)
